Experimental data: article doi:10.1101/2022.04.25.489347 (bioRxiv, 2022)

How the values were obtained:
crystal structure = biological target: the molecule itself; test: crystal structure
AUC = biological target: the molecule itself; test: AUC
H3/H4 tetramer [1] = biological target: T1, H3/H4 tetramer (UniProt P84233 1-136; P62799 1-103); test: AUC
H2A/H2B dimer [2] = biological target: T2, H2A/H2B dimer (UniProt P06897 1-130; P02281 1-126); test: AUC
H3/H4 tetramer [3] = biological target: T1, H3/H4 tetramer; test: ITC
H2A/H2B dimer [4] = biological target: T2, H2A/H2B dimer; test: ITC

B1: AtFKBP43 NTD (1-110) (domain or fragment, Arabidopsis thaliana, UniProt F4J9Q6 1-110, looked up)
chain: MAFWGVEVKPGKTFTLKNNEATGIRRLHLSQATLGHGTATNRSILQCNVGNKSPLLLCVLTPDKVDSCQLNLEFEETDEVIFSVIGPRSVHLTGYFLGRSTGFRPNDDES
- stoichiometry N (crystal structure): 5

B2: AtFKBP43 NTD (1-96) (domain or fragment, Arabidopsis thaliana, UniProt F4J9Q6 1-96, looked up)
chain: MAFWGVEVKPGKTFTLKNNEATGIRRLHLSQATLGHGTATNRSILQCNVGNKSPLLLCVLTPDKVDSCQLNLEFEETDEVIFSVIGPRSVHLTGYF
- stoichiometry N (AUC): 5

B3: AtFKBP43 (1-164) (domain or fragment, Arabidopsis thaliana, UniProt F4J9Q6 1-164, looked up)
chain: MAFWGVEVKPGKTFTLKNNEATGIRRLHLSQATLGHGTATNRSILQCNVGNKSPLLLCVLTPDKVDSCQLNLEFEETDEVIFSVIGPRSVHLTGYFLGRSTGFRPNDDESESFGEDIVDTDMEKGSSDDYDYSDSFINDDDPAVRGSHVSSTDDDEISIKEMTA
- stoichiometry N (H3/H4 tetramer [1]): 1
- stoichiometry N (H2A/H2B dimer [2]): 1
- stoichiometry N (AUC): 5
- Kd (H3/H4 tetramer [3]): 18 ± 2 nM
- Kd (H2A/H2B dimer [4]): 60 ± 6 nM

B4: AtFKBP43 (1-136) (domain or fragment, Arabidopsis thaliana, UniProt F4J9Q6 1-136, looked up)
chain: MAFWGVEVKPGKTFTLKNNEATGIRRLHLSQATLGHGTATNRSILQCNVGNKSPLLLCVLTPDKVDSCQLNLEFEETDEVIFSVIGPRSVHLTGYFLGRSTGFRPNDDESESFGEDIVDTDMEKGSSDDYDYSDSF
- stoichiometry N (H3/H4 tetramer [1]): 1
- stoichiometry N (H2A/H2B dimer [2]): 1
- stoichiometry N (AUC): 5
- Kd (H3/H4 tetramer [3]): 610 ± 40 nM
- Kd (H2A/H2B dimer [4]): 460 ± 30 nM
